# In patent publication US20200164069A1 (BOSTON PHARMACEUTICALS, published 2020):
# T1: IL-4 (UniProt P05112 25-153)
# T1 sequence (looked up): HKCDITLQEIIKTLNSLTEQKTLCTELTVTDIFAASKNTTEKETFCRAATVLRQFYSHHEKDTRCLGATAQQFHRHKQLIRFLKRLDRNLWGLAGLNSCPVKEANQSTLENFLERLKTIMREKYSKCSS
# T2: IL-7 (UniProt P13232 26-177)
# T2 sequence (looked up): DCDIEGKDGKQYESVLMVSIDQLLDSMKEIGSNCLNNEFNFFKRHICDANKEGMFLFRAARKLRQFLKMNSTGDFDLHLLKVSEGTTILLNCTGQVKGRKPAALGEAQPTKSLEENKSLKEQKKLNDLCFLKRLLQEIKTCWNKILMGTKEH
# B1: recombinant cynomolgus monkey IL-21 (ligand)
# chain: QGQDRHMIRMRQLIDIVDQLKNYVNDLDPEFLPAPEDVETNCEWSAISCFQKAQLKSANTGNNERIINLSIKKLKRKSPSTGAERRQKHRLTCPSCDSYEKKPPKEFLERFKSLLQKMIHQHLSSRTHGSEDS
# notes: also called cyno IL-21; cynoIL-21
# B2: K44VHa-N56Q (MEDI7169) (antibody, V domains shown)
# VH: QVQLVQSGAEVKKPGASVKVSCKASGYTFTDYWMHWVRQAPGQGLEWMGTIDPSDQYTIYSQNFKGRVTMTRDTSTSTVYMELSSLRSEDTAVYYCARYGFAMDYWGQGTLVTVSS
# VL: DIQLTQSPSSLSASVGDRVTITCRASQDISNFLNWYQQKPGKAVKLLIYYTSRLHSGVPSRFSGSGSGTDYTLTISSLQPEDFATYYCQQGHTLPRTFGGGTKVEIK
# Tests used:
# [1] = molecular target: T3, IL-21 (species not stated in the assay) (Homo sapiens (Human), UniProt Q9HBE4 25-162, Biotinylated in the competition ELISA of paragraph 259 (sites not given); unlabelled in the other results.); assay: method not stated
# T3 construct: also called biotinylated IL-21
# recombinant human IL-21 [2] = molecular target: T4, recombinant human IL-21 (human, UniProt Q9HBE4 30-162, limits assumed); assay: cell-based or functional assay
# [3] = molecular target: B1; assay: cell-based or functional assay
# [4] = molecular target: T3, IL-21 (species not stated in the assay); assay: cell-based or functional assay
# recombinant human IL-21 [5] = molecular target: T4, recombinant human IL-21; assay: cell-based or functional assay; remark: listed apart in the source
# [6] = molecular target: B1; assay: cell-based or functional assay; remark: listed apart in the source
# recombinant human IL-21 [7] = molecular target: T4, recombinant human IL-21; assay: cell-based or functional assay; remark: listed apart in the source
# [8] = molecular target: B1; assay: cell-based or functional assay; remark: listed apart in the source
# recombinant human IL-21 [9] = molecular target: T4, recombinant human IL-21; assay: cell-based or functional assay; remark: listed apart in the source
# [10] = molecular target: B1; assay: cell-based or functional assay; remark: listed apart in the source
# IL-2 = IL-2 (UniProt P60568 21-153); assay: ELISA on plate-coated cytokine (2 µg/ml)
# Method: (§1) ELISA was used to test cross reactivity of lead clones. Cytokines tested include 11-2, IL-4, IL-7, IL-9, and IL-15. Maxisorp ELISA plate (NUNC) was coated with 2 μg/ml of different cytokines in PBS at 4° C. overnight. The plate was then blocked with 3% BSA in PBST (PBS+0.1% Tween) at room temperature for one hour. Purified lead clone IgGs were serially diluted in PBST+3% BSA and the mixture was then added to each ELISA plate well and further incubated at room temperature for half an hour. After washing, secondary antibody-HRP was added to each well for 1 hour. Wells were washed first with PBST and then with PBS and the TMB solution from Pierce was added to detect the secondary antibody. After 5′ the reaction was stopped by the addition of 1N sulfuric acid. The plates were then read in an ELISA reader at 450 nm to detect the binding.
# IL-4 = molecular target: T1, IL-4; assay: ELISA on plate-coated cytokine (2 µg/ml)
# Method: as §1
# IL-7 = molecular target: T2, IL-7; assay: ELISA on plate-coated cytokine (2 µg/ml)
# Method: as §1
# recombinant human IL-21 [11] = molecular target: T4, recombinant human IL-21; assay: method not stated for this clone (Table 2, column Kd hu)
# K44VHa-N56Q (MEDI7169) [12] = molecular target: B2; assay: KinExA solution-phase equilibrium titration: fixed 50 pM K44VHa-N56Q (MEDI7169) IgG, cynomolgus monkey IL-21 varied; free IgG captured on IL-21-coated beads (the competitor)
# Method: (§2) The IL-21-coated Azlactone bead slurries were diluted to 30 mL with instrument buffer (PBS, pH 7.4, 0.02% NaN3) in a bead vial and affixed to the KinExA instrument. A user-defined timing program was used to sequentially transfer the IL-21/Azlactone beads to a capillary flow cell in the instrument, and individual sample mixtures were injected over the IL-21-coated beads. Unbound sample solution was removed by washing the beads with instrument buffer. A 1- or 2-μg/mL solution of the DyLight649-labeled, goat-anti-hulgG(H+L) secondary reagent (Thermo Scientific) was passed over the beads to detect receptor (K44VHa-N56Q) that remained bound to the IL-21-coated beads. […] The amount of fluorescence that remained associated with the beads was measured, and the signal was converted to percent free receptor (K44VHa-N56Q). […] Once the data had been collected for all samples in each series (500 fM and 50 pM K44VHa-N56Q), an isotherm was generated, which plotted the amount of free K44VHa-N56Q detected at each concentration of IL-21. The resulting 2 binding curves were then evaluated in a dual curve analysis using the instrument's evaluation software (KinExA Pro Software, v. 2.0.1.26, Sapidyne) from which individual KDS for each interaction were derived.
# (§3) The binding of K44VHa-N56Q to human and cynomolgus monkey IL-21 was measured by KinExA. […]
# K44VHa-N56Q (MEDI7169) [13] = molecular target: B2; assay: KinExA solution-phase equilibrium titration: fixed 500 fM K44VHa-N56Q (MEDI7169) IgG, cynomolgus monkey IL-21 varied; free IgG captured on IL-21-coated beads (the competitor)
# Method: as §2, §3
# IL-15 = IL-15 (UniProt P40933 49-162); assay: ELISA on plate-coated cytokine (2 µg/ml)
# Method: as §1
# recombinant human IL-21 [14] = molecular target: T4, recombinant human IL-21; assay: KinExA 3000, solution-phase equilibrium, dual curve analysis
# Method: as §2, §3
# [15] = molecular target: B1; assay: as above
# Method: as §2, §3
# T4 sequence (Q9HBE4 30-162 limits assumed, form in doubt): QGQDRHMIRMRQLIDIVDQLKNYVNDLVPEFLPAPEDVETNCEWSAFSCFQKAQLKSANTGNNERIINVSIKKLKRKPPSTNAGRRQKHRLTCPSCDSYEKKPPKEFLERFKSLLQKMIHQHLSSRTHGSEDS
# T3 sequence (Q9HBE4 25-162 limits assumed): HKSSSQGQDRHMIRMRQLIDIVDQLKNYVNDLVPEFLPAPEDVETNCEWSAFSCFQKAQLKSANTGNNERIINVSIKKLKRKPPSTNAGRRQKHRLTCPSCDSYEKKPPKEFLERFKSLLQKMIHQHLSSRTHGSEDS
# IL-2, sequence (P60568 21-153 limits assumed): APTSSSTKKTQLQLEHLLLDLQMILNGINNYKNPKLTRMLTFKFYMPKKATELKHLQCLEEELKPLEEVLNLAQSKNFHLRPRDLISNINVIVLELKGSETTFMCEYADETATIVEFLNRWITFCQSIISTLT
# IL-15, sequence (P40933 49-162 limits assumed): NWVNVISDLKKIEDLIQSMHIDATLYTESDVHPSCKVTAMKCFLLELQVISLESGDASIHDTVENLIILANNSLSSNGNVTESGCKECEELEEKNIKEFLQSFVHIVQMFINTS
Binder,Kd [1] [nM],inhibition of IgG production by human B cells (recombinant human IL-21 [2]) [%],inhibition of IgG production by human B cells [3] [%],maximal inhibition in pSTAT3 assay [4] [%],"IC50 in pSTAT3 assay (human PBMCs, 20 pM IL-21) (recombinant human IL-21 [5]) [pM]","IC50 in pSTAT3 assay (human PBMCs, 20 pM IL-21) [6] [pM]","IC50 in NK-92 cell assay (IFNγ, 200 pM IL-21) (recombinant human IL-21 [7]) [pM]","IC50 in NK-92 cell assay (IFNγ, 200 pM IL-21) [8] [pM]",IC50 in PC differentiation assay (2 nM IL-21) (recombinant human IL-21 [9]) [nM],IC50 in PC differentiation assay (2 nM IL-21) [10] [nM],binding result (IL-2),binding result (IL-4),binding result (IL-7),Kd (recombinant human IL-21 [11]) [nM],IC50 (read off the curve) (K44VHa-N56Q (MEDI7169) [12]) [nM],IC50 (read off the curve) (K44VHa-N56Q (MEDI7169) [13]) [nM],binding result (IL-15),Kd (recombinant human IL-21 [14]) [nM],Kd [15] [nM]
"murine monoclonal antibody 9F11 (antibody, V domains shown, also called 9F11.1) VH: EVELVESGGGLVQPGGSMKLSCAASGFTFSDAWMDWVRQSPEKGLEWVAEIRSEADNHPTYYAESVKGRFTISRDDSKSSVYLQMNSLRAEDSGIYYCTEYDYEGFVHWGQGTLVTVSA VL: DIVLTQSPASLAVSLGQRATISCRASKSVSTYGYSYMHWYQQKPGQPPKLLIYLASNLESGVPARFSGSGSGTDFTLNIHPVEEEDAATYYCQHSRELPLTFGAGTKLELK",10,97,79,100,21.7,83.2,462,867,47.3,74,no binding,no binding,no binding,0.00999,,,,,
B1,,,,,,,,,,,,,,,~0.06,~0.001,,,
B2,,,,100,17.2,19.3,92.7,80.8,0.777,1.06,no binding,no binding,no binding,,,,no binding,0.000515,0.000352
